Patent publication US20220332813A1 (UNIVERSITY OF MARYLAND BALTIMORE, published 2022)

Tests used:
[1] = target: T1, hyperphosphorylated 2N4R tau produced by Sf9 cells (human, UniProt P10636-8 1-441, hyperphosphorylated (produced in Sf9 insect cells, intermediate phosphorylation state); sites not stated); assay: SPR equilibrium (KD eq, Req fit)
T1 construct: His-tagged; also called SF9 tau; 2N4R SF9

[2] = target: T2, human recombinant tau (2N4R) (human, UniProt P10636-8 1-441); assay: SPR, from kinetic parameters of the 1:1 fit
T2 construct: Radio-iodinated in the cell assays; also called monomeric tau; full-length tau (2N4R)
T2 sequence (P10636 other isoform, or with tags, fused parts or gaps limits assumed): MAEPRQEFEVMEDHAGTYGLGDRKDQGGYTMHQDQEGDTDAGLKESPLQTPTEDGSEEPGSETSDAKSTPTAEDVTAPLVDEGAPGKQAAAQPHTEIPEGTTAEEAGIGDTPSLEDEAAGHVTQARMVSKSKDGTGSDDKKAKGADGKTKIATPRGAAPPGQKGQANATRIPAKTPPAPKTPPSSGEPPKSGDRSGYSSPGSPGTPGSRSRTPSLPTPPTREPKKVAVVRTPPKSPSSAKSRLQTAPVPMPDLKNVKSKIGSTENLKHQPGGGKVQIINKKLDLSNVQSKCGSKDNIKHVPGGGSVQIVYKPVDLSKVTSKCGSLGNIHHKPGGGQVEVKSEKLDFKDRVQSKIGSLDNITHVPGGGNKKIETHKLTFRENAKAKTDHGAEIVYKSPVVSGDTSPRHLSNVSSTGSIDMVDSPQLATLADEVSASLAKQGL

[3] = target: T1, hyperphosphorylated 2N4R tau produced …; assay: SPR, from kinetic parameters of the 1:1 fit
[4] = target: T2, human recombinant tau (2N4R); assay: SPR single cycle, VPS10P domain immobilised, 1:1 fit
[5] = target: T1, hyperphosphorylated 2N4R tau produced …; assay: as above
[6] = target: T2, human recombinant tau (2N4R); assay: SPR, SorLA fragment 82-181 immobilised, increasing tau

T1 sequence (P10636 other isoform, or with tags, fused parts or gaps limits assumed): as above

B1: recombinant human SORLA VPS10P domain (residues 82-753) (receptor)
chain: SAALQPEPIKVYGQVSLNDSHNQMVVHWAGEKSNVIVALARDSLALARPKSSDVYVSYDYGKSFKKISDKLNFGLGNRSEAVIAQFYHSPADNKRYIFADAYAQYLWITFDFCNTLQGFSIPFRAADLLLHSKASNLLLGFDRSHPNKQLWKSDDFGQTWIMIQEHVKSFSWGIDPYDKPNTIYIERHEPSGYSTVFRSTDFFQSRENQEVILEEVRDFQLRDKYMFATKVVHLLGSEQQSSVQLWVSFGRKPMRAAQFVTRHPINEYYIADASEDQVFVCVSHSNNRTNLYISEAEGLKFSLSLENVLYYSPGGAGSDTLVRYFANEPFADFHRVEGLQGVYIATLINGSMNEENMRSVITFDKGGTWEFLQAPAFTGYGEKINCELSQGCSLHLAQRLSQLLNLQLRRMPILSKESAPGLIIATGSVGKNLASKTNVYISSSAGARWREALPGPHYYTWGDHGGIITAIAQGMETNELKYSTNEGETWKTFIFSEKPVFVYGLLTEPGEKSTVFTIFGSNKENVHSWLILQVNATDALGVPCTENDYKLWSPSDERGNECLLGHKTVFKRRTPHATCFNGEDFDRPVVVSNCSCTREDYECDFGFKMSEDLSLEVCVPDPEFSGKSYSPPVPCPVGSTYRRTRGYRKISGDTCSGGDVEARLEGELVPCP
notes: also called SORL1 VPS10 domain; R&D Systems 9880-LA
Kd [1]: 95 nM
Kd [2]: 15 nM
Kd [3]: 78 nM
koff [4]: 0.41 s⁻¹
kon [4]: 5e+07 M⁻¹ s⁻¹
koff [5]: 0.0061 s⁻¹
kon [5]: 85000 M⁻¹ s⁻¹

B2: commercially available fragment of SorLA comprising residues 82-181 (receptor)
chain: SAALQPEPIKVYGQVSLNDSHNQMVVHWAGEKSNVIVALARDSLALARPKSSDVYVSYDYGKSFKKISDKLNFGLGNRSEAVIAQFYHSPADNKRYIFAD
notes: The range may be a misprint for 82-753; also called SorLA fragment
Kd [6]: 40 nM
